Laboratory results reported in US20100216690A1, “Pegylated Single-Chain Insulin” (Novo Nordisk A/S, priority 2005, published 2010).

target: T1, human insulin receptor (IR) (Homo sapiens, UniProt P06213); experiment: displacement of 125I-human insulin from human insulin receptor; affinity relative to human insulin; conditions: not given
Target sequence in this assay (P06213 other isoform, or with tags, fused parts or gaps limits assumed, form in doubt): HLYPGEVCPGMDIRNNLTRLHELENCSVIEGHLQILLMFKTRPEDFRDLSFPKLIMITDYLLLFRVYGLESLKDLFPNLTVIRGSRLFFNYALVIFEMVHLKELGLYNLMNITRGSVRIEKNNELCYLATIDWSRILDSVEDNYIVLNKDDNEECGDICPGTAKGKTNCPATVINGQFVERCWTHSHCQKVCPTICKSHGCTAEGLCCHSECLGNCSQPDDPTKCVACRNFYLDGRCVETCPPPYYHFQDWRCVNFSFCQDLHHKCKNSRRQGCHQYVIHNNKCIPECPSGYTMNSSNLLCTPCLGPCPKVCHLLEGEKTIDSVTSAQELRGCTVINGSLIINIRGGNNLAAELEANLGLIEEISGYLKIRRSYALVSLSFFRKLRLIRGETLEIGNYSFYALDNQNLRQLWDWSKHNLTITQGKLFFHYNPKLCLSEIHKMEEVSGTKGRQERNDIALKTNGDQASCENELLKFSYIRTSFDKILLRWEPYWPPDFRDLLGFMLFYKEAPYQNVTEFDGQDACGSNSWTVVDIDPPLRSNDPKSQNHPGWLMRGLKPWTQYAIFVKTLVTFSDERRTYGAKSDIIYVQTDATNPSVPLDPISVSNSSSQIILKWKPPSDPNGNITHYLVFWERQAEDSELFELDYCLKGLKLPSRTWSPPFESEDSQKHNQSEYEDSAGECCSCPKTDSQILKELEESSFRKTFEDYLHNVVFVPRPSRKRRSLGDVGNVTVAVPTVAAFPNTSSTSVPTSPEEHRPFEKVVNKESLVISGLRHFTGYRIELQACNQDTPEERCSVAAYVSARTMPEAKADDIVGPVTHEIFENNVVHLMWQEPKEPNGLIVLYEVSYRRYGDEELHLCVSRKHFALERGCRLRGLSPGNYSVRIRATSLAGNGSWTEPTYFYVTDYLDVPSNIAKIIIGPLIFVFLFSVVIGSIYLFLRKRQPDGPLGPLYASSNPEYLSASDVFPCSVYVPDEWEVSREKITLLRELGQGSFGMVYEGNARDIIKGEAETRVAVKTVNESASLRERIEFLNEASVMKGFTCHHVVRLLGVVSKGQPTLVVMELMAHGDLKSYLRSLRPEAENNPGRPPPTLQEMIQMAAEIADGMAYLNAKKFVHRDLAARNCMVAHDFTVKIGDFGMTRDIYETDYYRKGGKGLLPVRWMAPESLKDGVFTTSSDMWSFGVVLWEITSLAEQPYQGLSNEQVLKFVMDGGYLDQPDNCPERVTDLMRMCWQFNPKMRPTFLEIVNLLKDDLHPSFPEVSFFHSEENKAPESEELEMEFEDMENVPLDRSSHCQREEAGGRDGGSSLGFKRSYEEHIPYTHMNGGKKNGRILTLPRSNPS

| IR binding in percent of human insulin [%] | Substance |
| --- | --- |
| 8.1 | B(1-29)-B1(N^α-3-(mPEG2000-yl)propionyl)-B29A-VGLSSGQ-A(1-21)-A18Q Human Insulin (from UniProt P01308 25-53; P01308 90-110) (ligand) |
| 4.5 | B(1-29)-B3K(N^ε-3-(mPEG2000-yl)propionyl)-B29A-VGLSSGQ-A(1-21)-A18Q Human Insulin (from UniProt P01308 25-53; P01308 90-110) (ligand) |
| 6.8 | B(1-29)-B3Q-B29R-TGLGK(N^ε-3-(mPEG2000-yl)propionyl)GQ-A(1-21)-A18Q-A21G Human Insulin (from UniProt P01308 25-53; P01308 90-110) (ligand) |
| 19.7 | B(1-29)-B22K(N^ε-3-(mPEG2000-yl)propionyl)-B29A-A18Q-VGLSSGQ-A(1-21) Human Insulin (from UniProt P01308 25-53; P01308 90-110) (ligand) |
| 4.6 | B(1-29)-B29A-VGLSSGQ-A(1-21)-A8K(N^ε-3-(mPEG2000-yl)propionyl)-A18Q Human Insulin (from UniProt P01308 25-53; P01308 90-110) (ligand) |
| 12 | B(1-29)-B29A-VGLSSGQ-A(1-22)-A18Q-A22K(N^ε-3-(mPEG2000-yl)propionyl) Human Insulin (from UniProt P01308 25-53; P01308 90-110) (ligand) |
| 3.2 | B(1-29)-B29A-VK(N^ε-3-(mPEG2000-yl)propionyl)LSSGQ-A(1-21)-A18Q Human Insulin (from UniProt P01308 25-53; P01308 90-110) (ligand) |
| 5.3 | B(1-29)-B29K(N^ε-3-(mPEG2000-yl-propionyl)-VGLSSGQ-A(1-21)-A18Q Human Insulin (from UniProt P01308 25-53; P01308 90-110) (ligand) |

target: T1, human insulin receptor (IR); experiment: Binding affinity to the human insulin receptor relative to human insulin (SPA antibody capture assay); conditions: binding affinity to the human insulin receptor relative to that of human insulin
Protocol: The PEGylated single-chain insulins were tested for biological insulin activity as measured by binding affinity to the human insulin receptor (IR) relative to that of human insulin as described below.
Insulin receptor binding of the PEGylated single-chain insulins of the invention.
The affinity of the PEGylated, single-chain insulins the invention for the human insulin receptor is determined by a SPA assay (Scintillation Proximity Assay) microtiterplate antibody capture assay. SPA-PVT antibody-binding beads, anti-mouse reagent (Amersham Biosciences, Cat No. PRNQ0017) are mixed with 25 ml of binding buffer (100 mM HEPES pH 7.8; 100 mM sodium chloride, 10 mM MgSO4, 0.025% Tween-20). Reagent mix for a single Packard Optiplate (Packard No. 6005190) is composed of 2.4 μl of a 1:5000 diluted purified recombinant human insulin receptor—exon 11, an amount of a stock solution of A14 Tyr[125I]-human insulin corresponding to 5000 cpm per 100 μl of reagent mix, 12 μl of a 1:1000 dilution of F12 antibody, 3 ml of SPA-beads and binding buffer to a total of 12 ml. A total of 100 μl is then added and a dilution series is made from appropriate samples. To the dilution series is then added 100 μl of reagent mix and the samples were incubated for 16 hours while gently shaken. The phases are then separated by centrifugation for 1 min and the plates counted in a Topcounter. The binding data are fitted using the nonlinear regression algorithm in the GraphPad Prism 2.01 (GraphPad Software, San Diego, Calif.).
Target sequence in this assay (P06213 28-746 isoform P06213-2 limits assumed): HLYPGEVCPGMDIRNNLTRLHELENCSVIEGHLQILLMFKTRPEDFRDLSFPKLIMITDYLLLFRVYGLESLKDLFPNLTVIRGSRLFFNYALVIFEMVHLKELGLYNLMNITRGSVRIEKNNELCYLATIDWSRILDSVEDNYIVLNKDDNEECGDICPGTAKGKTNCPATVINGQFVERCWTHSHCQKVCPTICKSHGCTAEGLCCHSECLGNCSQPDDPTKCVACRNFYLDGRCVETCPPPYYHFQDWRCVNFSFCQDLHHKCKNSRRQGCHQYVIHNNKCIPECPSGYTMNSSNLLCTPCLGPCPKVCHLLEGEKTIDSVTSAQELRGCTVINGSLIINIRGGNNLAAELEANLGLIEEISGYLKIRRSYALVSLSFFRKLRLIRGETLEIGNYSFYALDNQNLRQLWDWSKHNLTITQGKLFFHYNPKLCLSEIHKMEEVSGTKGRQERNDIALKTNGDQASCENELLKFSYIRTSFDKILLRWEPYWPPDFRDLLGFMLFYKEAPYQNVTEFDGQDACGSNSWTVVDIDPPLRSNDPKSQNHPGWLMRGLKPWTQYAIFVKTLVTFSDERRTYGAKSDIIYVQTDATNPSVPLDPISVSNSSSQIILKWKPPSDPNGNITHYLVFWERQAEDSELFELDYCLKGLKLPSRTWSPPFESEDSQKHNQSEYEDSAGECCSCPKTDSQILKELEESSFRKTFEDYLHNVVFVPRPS
Target sequence in this assay (P06213 763-1382 partner limits assumed): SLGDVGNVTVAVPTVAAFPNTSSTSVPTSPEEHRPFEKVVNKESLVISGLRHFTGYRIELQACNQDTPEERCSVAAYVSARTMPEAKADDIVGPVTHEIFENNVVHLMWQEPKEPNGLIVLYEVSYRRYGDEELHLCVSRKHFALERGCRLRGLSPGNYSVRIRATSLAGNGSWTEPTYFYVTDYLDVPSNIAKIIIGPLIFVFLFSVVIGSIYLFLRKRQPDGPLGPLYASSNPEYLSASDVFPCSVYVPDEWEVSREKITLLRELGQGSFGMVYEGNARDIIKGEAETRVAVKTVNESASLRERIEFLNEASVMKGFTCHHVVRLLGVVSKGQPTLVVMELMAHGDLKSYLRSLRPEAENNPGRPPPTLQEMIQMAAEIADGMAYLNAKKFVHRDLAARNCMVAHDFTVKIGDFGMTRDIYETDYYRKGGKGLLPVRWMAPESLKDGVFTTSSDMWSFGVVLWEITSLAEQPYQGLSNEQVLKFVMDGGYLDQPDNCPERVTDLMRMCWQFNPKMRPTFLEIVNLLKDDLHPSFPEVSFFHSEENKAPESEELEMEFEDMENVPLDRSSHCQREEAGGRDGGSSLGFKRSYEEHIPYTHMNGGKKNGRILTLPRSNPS

| Substance | IR binding in percent of human insulin [%] |
| --- | --- |
| B(1-29)-B1(N^α-3-(mPEG2000-yl)propionyl)-B29A-VGLSSGQ-A(1-21)-A18Q Human Insulin [Example 8] | 8.1 |
| B(1-29)-B3K(N^ε-3-(mPEG2000-yl)propionyl)-B29A-VGLSSGQ-A(1-21)-A18Q Human Insulin [Example 7] | 4.5 |
| B(1-29)-B3Q-B29R-TGLGK(N^ε-3-(mPEG2000-yl)propionyl)GQ-A(1-21)-A18Q-A21G Human Insulin [Example 1] | 6.8 |
| B(1-29)-B22K(N^ε-3-(mPEG2000-yl)propionyl)-B29A-A18Q-VGLSSGQ-A(1-21) Human Insulin [Example 2] | 19.7 |
| B(1-29)-B29A-VGLSSGQ-A(1-21)-A8K(N^ε-3-(mPEG2000-yl)propionyl)-A18Q Human Insulin [Example 4] | 4.6 |
| B(1-29)-B29A-VGLSSGQ-A(1-22)-A18Q-A22K(N^ε-3-(mPEG2000-yl)propionyl) Human Insulin [Example 6] | 12 |
| B(1-29)-B29A-VK(N^ε-3-(mPEG2000-yl)propionyl)LSSGQ-A(1-21)-A18Q Human Insulin [Example 5] | 3.2 |
| B(1-29)-B29K(N^ε-3-(mPEG2000-yl-propionyl)-VGLSSGQ-A(1-21)-A18Q Human Insulin [Example 3] | 5.3 |
